Columns and labels:
[1] = molecular target: CD28 receptor loaded onto anti-human capture sensor (ForteBio Octet AHC) (UniProt P10747 19-152); assay: ForteBio Octet BLI, receptor on AHC sensor
Procedure: (§1) Each titration was globally fit to calculate the association (kₒₙ) and dissociation (Kdis) of each protein. […] The dissociation constant (KD) was calculated and compared to wildtype to determine a fold improvement value (fold imp.).

[2] = molecular target: CTLA-4 receptor loaded onto anti-human capture sensor (ForteBio Octet AHC) (UniProt P16410 37-162, limits assumed); assay: ForteBio Octet BLI, receptor on AHC sensor
Procedure: as §1

[3] = molecular target: T1, ICOS receptor loaded onto anti-human capture sensor (ForteBio Octet AHC) (UniProt Q9Y6W8 21-141, limits assumed); assay: ForteBio Octet BLI, receptor on AHC sensor
T1 sequence (looked up): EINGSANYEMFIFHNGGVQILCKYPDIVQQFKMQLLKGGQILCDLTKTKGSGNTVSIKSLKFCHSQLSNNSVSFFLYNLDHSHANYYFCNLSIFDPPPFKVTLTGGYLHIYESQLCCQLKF
Procedure: as §1

human CD28 = molecular target: T2, human CD28 (human, UniProt P10747 19-220); assay: flow cytometry, transfected HEK293 cells
T2 construct: whole, on cells
Procedure: (§2) Binding was assessed substantially as described in Example 1 on transfected HEK293 cells generated to express the full-length surface ligands CD28, ICOS or CTLA-4 from human, cynomolgus monkey, rat or mouse. Transfection was carried out using a transient transfection system (Life Technologies, USA). As a control, binding to mock (non-transfected) cells also was assessed.

human CTLA-4 = molecular target: T3, human CTLA-4 (human, UniProt P16410 36-223); assay: flow cytometry, transfected HEK293 cells
T3 construct: whole, on cells
Procedure: as §2

human ICOS = molecular target: T4, human ICOS (human, UniProt Q9Y6W8 21-199); assay: flow cytometry, transfected HEK293 cells
T4 construct: whole, on cells
T4 sequence (looked up): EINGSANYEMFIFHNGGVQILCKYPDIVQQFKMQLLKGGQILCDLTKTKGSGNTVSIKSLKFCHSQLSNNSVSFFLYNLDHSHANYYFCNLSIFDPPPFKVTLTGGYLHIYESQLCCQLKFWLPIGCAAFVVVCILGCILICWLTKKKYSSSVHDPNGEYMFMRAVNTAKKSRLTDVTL
Procedure: as §2

cynomolgus monkey CD28 = molecular target: T5, cynomolgus monkey CD28 (cynomolgus monkey, UniProt Q0PDN3 19-220); assay: flow cytometry, transfected HEK293 cells
T5 construct: whole, on cells
Procedure: as §2

cynomolgus monkey ICOS = molecular target: T6, cynomolgus monkey ICOS (cynomolgus monkey, UniProt A0A2K5TQR6 21-168); assay: flow cytometry, transfected HEK293 cells
T6 sequence: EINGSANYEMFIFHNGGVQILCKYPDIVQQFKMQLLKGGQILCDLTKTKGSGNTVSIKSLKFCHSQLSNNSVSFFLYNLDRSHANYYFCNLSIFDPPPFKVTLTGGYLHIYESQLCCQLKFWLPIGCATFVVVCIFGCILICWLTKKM
Procedure: as §2

cynomolgus monkey CTLA-4 = molecular target: T7, cynomolgus monkey CTLA-4 (cynomolgus monkey, UniProt G7PL88 36-223); assay: flow cytometry, transfected HEK293 cells
T7 construct: whole, on cells
Procedure: as §2

rat CD28 = molecular target: T8, rat CD28 (rat, UniProt P31042 20-218); assay: flow cytometry, transfected HEK293 cells
T8 construct: whole, on cells
Procedure: as §2

rat ICOS = molecular target: T9, rat ICOS (rat, UniProt Q9R1T7 21-200); assay: flow cytometry, transfected HEK293 cells
T9 construct: whole, on cells
T9 sequence (looked up): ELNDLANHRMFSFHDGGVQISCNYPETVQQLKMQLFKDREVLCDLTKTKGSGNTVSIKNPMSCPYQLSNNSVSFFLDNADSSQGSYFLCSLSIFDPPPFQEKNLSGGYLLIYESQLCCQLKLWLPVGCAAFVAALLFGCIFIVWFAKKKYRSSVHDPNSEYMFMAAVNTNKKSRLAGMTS
Procedure: as §2

rat CTLA-4 = rat CTLA-4 (rat, UniProt Q62859 36-223); assay: flow cytometry, transfected HEK293 cells
Procedure: as §2

mouse CD28 = molecular target: T10, mouse CD28 (mouse, UniProt P31041 20-218); assay: flow cytometry, transfected HEK293 cells
T10 construct: whole, on cells
Procedure: as §2

mouse ICOS = molecular target: T11, mouse ICOS (mouse, UniProt Q9WVS0 21-200); assay: flow cytometry, transfected HEK293 cells
T11 construct: whole, on cells
T11 sequence (looked up): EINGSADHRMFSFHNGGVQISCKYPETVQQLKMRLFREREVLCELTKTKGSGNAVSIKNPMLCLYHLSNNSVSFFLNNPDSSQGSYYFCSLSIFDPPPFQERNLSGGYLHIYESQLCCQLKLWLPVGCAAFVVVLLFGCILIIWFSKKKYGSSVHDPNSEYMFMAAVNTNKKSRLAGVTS
Procedure: as §2

mouse CTLA-4 = molecular target: T12, mouse CTLA-4 (mouse, UniProt P09793 36-223); assay: flow cytometry, transfected HEK293 cells
T12 construct: whole, on cells
Procedure: as §2

[4] = molecular target: T13, CD28 on CHO cells expressing CD28 (UniProt P10747 19-220, limits assumed); assay: competition, flow cytometry: competitor CD80 on CHO cells expressing CD28
T13 construct: whole, on cells

[5] = molecular target: T13, CD28 on CHO cells expressing CD28; assay: competition, flow cytometry: competitor labelled CD86 on CHO cells expressing CD28
[6] = molecular target: T14, ICOS on CHO cells expressing ICOS (UniProt Q9Y6W8 21-199, limits assumed); assay: competition, flow cytometry: competitor labelled ICOSL on CHO cells expressing ICOS
T14 construct: whole, on cells
T14 sequence (looked up): T4 sequence (looked up)

[7] = molecular target: T13, CD28 on CHO cells expressing CD28; assay: flow cytometry on CHO cells expressing CD28, bound protein detected with anti-human IgG-PE, median fluorescence against [pM]
[8] = molecular target: T14, ICOS on CHO cells expressing ICOS; assay: flow cytometry on CHO cells expressing ICOS, bound protein detected with anti-human IgG-PE, median fluorescence against [pM]
[9] = molecular target: T15, human CTLA-4, full-length, on transfected cells (human, UniProt P16410 36-223); assay: flow cytometry on transfected HEK293 cells
T15 construct: whole, on cells; also called CTLA-4 tfxn
Procedure: (§3) Binding studies were carried out on transfected HEK293 cells generated to express the full-length mammalian (human) surface ligands, CD28, ICOS or CTLA-4, using a transient transfection system (Life Technologies, USA). As a control, binding to mock (non-transfected) cells also was assessed. For staining by flow cytometry, 200,000 cells of appropriate transient transfection or negative control (mock) were plated in 96 well round bottom plates, and, then incubated in staining buffer (PBS, phosphate buffered saline; 1% BSA, bovine serum albumin; and 0.1% sodium azide) for 20 minutes to block non-specific binding. Cells were resuspended in staining buffer containing 100 nM to 1 nM variant immunomodulatory protein in 50 μL. Mean Fluorescence Intensity (MFI) was calculated for each transfectant and negative parental line with Cell Quest Pro software (Becton Dickinson, USA) or a Hypercyt flow cytometer (Intellicyte, USA).
as §2

[10] = molecular target: T16, rat CD28, full-length, on transfected HEK293 cells (rat, UniProt P31042 20-218); assay: flow cytometry on transfected HEK293 cells
T16 construct: whole, on cells
Procedure: as §3, §2

[11] = molecular target: T17, rat ICOS, full-length, on transfected HEK293 cells (rat, UniProt Q9R1T7 21-200); assay: flow cytometry on transfected HEK293 cells
T17 construct: whole, on cells
T17 sequence (looked up): T9 sequence (looked up)
Procedure: as §3, §2

[12] = molecular target: T18, mouse CD28, full-length, on transfected HEK293 cells (mouse, UniProt P31041 20-218); assay: flow cytometry on transfected HEK293 cells
T18 construct: whole, on cells
Procedure: as §3, §2

[13] = molecular target: T19, mouse ICOS, full-length, on transfected HEK293 cells (mouse, UniProt Q9WVS0 21-200); assay: flow cytometry on transfected HEK293 cells
T19 construct: whole, on cells
T19 sequence (looked up): T11 sequence (looked up)
Procedure: as §3, §2

[14] = molecular target: T20, mouse CTLA-4, full-length, on transfected HEK293 cells (mouse, UniProt P09793 36-223); assay: flow cytometry on transfected HEK293 cells
T20 construct: whole, on cells
Procedure: as §3, §2

[15] = molecular target: T21, human CD28, full-length, on transfected cells (human, UniProt P10747 19-220); assay: flow cytometry on CHO cells expressing CD28, anti-human IgG-PE
T21 construct: whole, on cells; also called CD28 tfxn

[16] = molecular target: T22, human ICOS, full-length, on transfected cells (human, UniProt Q9Y6W8 21-199); assay: flow cytometry on CHO cells expressing ICOS, anti-human IgG-PE
T22 construct: whole, on cells; also called ICOS tfxn
T22 sequence (looked up): T4 sequence (looked up)

[17] = molecular target: T23, ICOSL labeled with AlexaFluor-647 (UniProt O75144 19-256, limits assumed, labeled with AlexaFluor-647); assay: competition, flow cytometry: labelled ICOSL on CHO cells expressing ICOS
T23 sequence (looked up): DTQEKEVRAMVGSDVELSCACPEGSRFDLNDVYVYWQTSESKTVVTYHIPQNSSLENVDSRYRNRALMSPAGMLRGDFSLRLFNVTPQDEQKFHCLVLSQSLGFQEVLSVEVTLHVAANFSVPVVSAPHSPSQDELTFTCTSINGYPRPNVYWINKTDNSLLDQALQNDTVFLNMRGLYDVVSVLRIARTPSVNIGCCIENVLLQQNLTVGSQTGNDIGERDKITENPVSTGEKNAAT

B1: wildtype PD-L2 ED-Fc fusion molecule (Fc fusion, UniProt Q9BQ51 20-220, looked up)
chain: LFTVTVPKELYIIEHGSNVTLECNFDTGSHVNLGAITASLQKVENDTSPHRERATLLEEQLPLGKASFHIPQVQVRDEGQYQCIIIYGVAWDYKYLTLKVKASYRKINTHILKVPETDEVELTCQATGYPLAEVSWPNVSVPANTSHSRTPEGLYQVTSVLRLKPPPGRNFSCVFWNTHVRELTLASIDLQSQMEPRTHPT
notes: extracellular domain; Control protein in the ForteBio assays; also called PD-L2-Fc; not shown: Fc part and any linker are not described
- Response [1]: -0.04
- Response [2]: 0
- Response [3]: 0.03

B2: variant ICOSL IgV-Fc (variant ICOSL IgV N52H/N57Y/Q100R, SEQ ID NO: 36, fused to an inert human IgG1 Fc, e.g. SEQ ID NO: 42) (Fc fusion)
chain: DTQEKEVRAMVGSDVELSCACPEGSRFDLNDVYVYWQTSESKTVVTYHIPQHSSLEYVDSRYRNRALMSPAGMLRGDFSLRLFNVTPQDEQKFHCLVLSRSLGFQEVLSVEVTLHVAANFSVEPKSSDKTHTCPPCPAPEAEGAPSVFLFPPKPKDTLMISRTPEVTCVVVDVSHEDPEVKFNWYVDGVEVHNAKTKPREEQYNSTYRVVSVLTVLHQDWLNGKEYKCKVSNKALPAPIEKTISKAKGQPREPQVYTLPPSRDELTKNQVSLTCLVKGFYPSDIAVEWESNGQPENNYKTTPPVLDSDGSFFLYSKLTVDKSRWQQGNVFSCSVMHEALHNHYTQKSLSLSPG
notes: also called variant ICOSL vIgD-Fc fusion molecule
- EC50 (human CD28): 0.648 nM
- EC50 (human CTLA-4): 0.68 nM
- EC50 (human ICOS): 0.633 nM
- EC50 (cynomolgus monkey CD28): 0.44 nM
- EC50 (cynomolgus monkey ICOS): 0.579 nM
- EC50 (cynomolgus monkey CTLA-4): 0.704 nM
- EC50 (rat CD28): 1.06 nM
- EC50 (rat ICOS): 1.03 nM
- EC50 (rat CTLA-4): 0.793 nM
- EC50 (mouse CD28): 1.15 nM
- EC50 (mouse ICOS): 1.43 nM
- EC50 (mouse CTLA-4): 1.11 nM
- IC50 [4]: 1 nM
- IC50 [5]: 0.7 nM
- IC50 [6]: 4.3 nM
- EC50 (read off the curve) [7]: ~3 nM
- EC50 (read off the curve) [8]: ~3 nM

B3: variant ICOSL IgV-Fc (N52H/N57Y/Q100R) (Fc fusion)
chain: DTQEKEVRAMVGSDVELSCACPEGSRFDLNDVYVYWQTSESKTVVTYHIPQHSSLEYVDSRYRNRALMSPAGMLRGDFSLRLFNVTPQDEQKFHCLVLSRSLGFQEVLSVEVTLHVAANFSVGGGGSGGGGSEPKSSDKTHTCPPCPAPEAEGAPSVFLFPPKPKDTLMISRTPEVTCVVVDVSHEDPEVKFNWYVDGVEVHNAKTKPREEQYNSTYRVVSVLTVLHQDWLNGKEYKCKVSNKALPAPIEKTISKAKGQPREPQVYTLPPSRDELTKNQVSLTCLVKGFYPSDIAVEWESNGQPENNYKTTPPVLDSDGSFFLYSKLTVDKSRWQQGNVFSCSVMHEALHNHYTQKSLSLSPG
notes: also called variant ICOSL vIgD-Fc fusion molecule; ICOS-IgV Fc (N52H/N57Y/Q100R)
- binding result [9]: binds
- binding result [10]: binds
- binding result [11]: binds
- binding result [12]: binds
- binding result [13]: binds
- binding result [14]: binds
- binding result [15]: binds
- binding result [16]: binds

B4: prezalumab (AMG-557; anti-ICOSL, Creative Biolabs) (antibody, V domains shown)
VH: EVQLVESGGGLVQPGGSLRLSCAASGFTFSSYWMSWVRQAPGKGLEWVAYIKQDGNEKYYVDSVKGRFTISRDNAKNSLYLQMNSLRAEDTAVYYCAREGILWFGDLPTFWGQGTLVTVSS
VL: DIQMTQSPSSLSASVGDRVTITCRASQGISNWLAWYQQKPEKAPKSLIYAASSLQSGVPSRFSGSGSGTDFTLTISSLQPEDFATYYCQQYDSYPRTFGQGTKVEIK
- IC50 [17]: 23.3 nM
